According to US20230405133A1, “PURIFIED MULTIVALENT PROTEIN-HYALURONIC ACID POLYMER CONJUGATES” (Valitor, Inc., priority 2022, published 2023):
One block for each binder: values may come before it.

Experiments:
[1] = target: T1, Human VEGF 165 (human, UniProt P15692-4 27-191); assay: BLI, VEGF 165 on probe, t = 0 (repeats Table 15); limit of detection
T1 construct: Loaded on the BLI probe as the ligand; also called BLI ligand Human VEGF 165 (Avi tag, R&D Systems AVI-293-050); not shown: Avi tag
Target sequence in this assay (P15692 other isoform, or with tags, fused parts or gaps limits assumed): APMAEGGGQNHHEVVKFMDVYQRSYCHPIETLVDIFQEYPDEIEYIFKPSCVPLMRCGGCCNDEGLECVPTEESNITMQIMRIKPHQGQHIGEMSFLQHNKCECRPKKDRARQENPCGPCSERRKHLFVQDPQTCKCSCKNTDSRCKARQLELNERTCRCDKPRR

[2] = target: T1, Human VEGF 165; assay: BLI, VEGF 165 on probe, conjugate as analyte, t = 0; value is the limit of detection
Target sequence in this assay (P15692 other isoform, or with tags, fused parts or gaps limits assumed): as above

[3] = target: T1, Human VEGF 165; assay: BLI; KD after 14 days at 37 °C against KD at t = 0
Target sequence in this assay (P15692 other isoform, or with tags, fused parts or gaps limits assumed): as above

[4] = target: T1, Human VEGF 165; assay: BLI, VEGF 165 on probe; sample aged 4 days at 37 °C
Target sequence in this assay (P15692 other isoform, or with tags, fused parts or gaps limits assumed): as above

[5] = target: T1, Human VEGF 165; assay: BLI, VEGF 165 on probe; sample aged 14 days at 37 °C
Target sequence in this assay (P15692 other isoform, or with tags, fused parts or gaps limits assumed): as above

[6] = target: T1, Human VEGF 165; assay: BLI; KD after 4 days at 37 °C against KD at t = 0
Target sequence in this assay (P15692 other isoform, or with tags, fused parts or gaps limits assumed): as above

[7] = target: T1, Human VEGF 165; assay: BLI, VEGF 165 on probe; sample aged 4 days at 37 °C; limit of detection
[8] = target: T1, Human VEGF 165; assay: BLI, VEGF binding affinity (KD, nM)
[9] = target: T1, Human VEGF 165; assay: BLI, VEGF 165 on probe, conjugate as analyte, t = 0; t = 0, fresh conjugate, not aged
[10] = target: T1, Human VEGF 165; assay: BLI, VEGF 165 on probe; sample aged 3 days at 37 °C; aged 3 days at 37 C (sample 1)
[11] = target: T1, Human VEGF 165; assay: BLI; KD after 3 days at 37 °C against KD at t = 0; fold change of KD, 3 days at 37 C against t = 0
[12] = target: T1, Human VEGF 165; assay: BLI, VEGF 165 on probe, conjugate as analyte, t = 0
[13] = target: T1, Human VEGF 165; assay: BLI, VEGF 165 on probe; sample aged 5 days at 37 °C
[14] = target: T1, Human VEGF 165; assay: BLI; KD after 3 days at 37 °C against KD at t = 0
[15] = target: T1, Human VEGF 165; assay: BLI, VEGF 165 on probe; sample aged 3 days at 37 °C
[16] = target: T1, Human VEGF 165; assay: BLI; KD after 5 days at 37 °C against KD at t = 0
[17] = target: T1, Human VEGF 165; assay: BLI, VEGF 165 on probe, t = 0 (repeats Table 15)
[18] = target: T1, Human VEGF 165; assay: BLI, VEGF 165 on probe, conjugate as analyte

Kd [1]: < 0.001 nM
Kd [2]: < 0.001 nM
Change in KD to t = 0 [3]: 142 fold
Kd [4]: 5.87 nM
Kd [5]: 0.142 nM
Change in KD to t = 0 [6]: 5870 fold
B1: Conjugate 22 (anti-VEGF VHH SEQ ID NO: 91 with aH linker SEQ ID NO: 21 on hyaluronic acid, intermediate 1-10) (VHH)
VHH: DVQLVESGGGLVQPGGSLRLSCAASGRTFSSYSMGWFRQAPGKEREFVVAISKGGYKYDAVSLEGRFTISRDNAKNTVYLQINSLRPEDTAVYYCASSRAYGSSRLRLADTYEYWGQGTLVTVSS
modifications: C-terminal Cys of the peptide linker bound by its thiol to the maleimide of the organic linker MP2H on hyaluronic acid (830 kDa)
notes: Multivalent peptide-hyaluronic acid conjugate (MVP); peptide valency 18; Method 1 intermediate; also called BI VHH anti-VEGF MVP

Kd [1]: < 0.001 nM
Kd [2]: < 0.001 nM
Change in KD to t = 0 [3]: 1140 fold
Kd [4]: 3.3 nM
Kd [5]: 1.14 nM
Change in KD to t = 0 [6]: 3300 fold
B2: Conjugate 21 (anti-VEGF VHH SEQ ID NO: 91 with aH linker SEQ ID NO: 21 on hyaluronic acid, intermediate 1-9) (VHH)
VHH: B1 VHH
modifications: C-terminal Cys of the peptide linker bound by its thiol to the maleimide of the organic linker MP2H on hyaluronic acid (830 kDa)
notes: Multivalent peptide-hyaluronic acid conjugate (MVP); peptide valency 51; Method 1 intermediate; also called BI VHH anti-VEGF MVP

Kd [1]: < 0.001 nM
Kd [2]: < 0.001 nM
Change in KD to t = 0 [3]: 3670 fold
Kd [7]: < 0.001 nM
Kd [5]: 3.67 nM
Change in KD to t = 0 [6]: 1 fold
B3: Conjugate 18 (anti-VEGF VHH SEQ ID NO: 91 on hyaluronic acid, intermediate 1-7) (VHH)
VHH: B1 VHH
modifications: peptide bound through the organic linker MP2H to hyaluronic acid (830 kDa); site of attachment not stated
notes: Multivalent peptide-hyaluronic acid conjugate (MVP); peptide valency 88; Method 1 intermediate; also called BI VHH anti-VEGF MVP

binding result [8]: binds
B4: 2H10_5MUT_aH_CYS (unconjugated) (VHH)
VHH: QVQLVESGGGLVQPGGSLRLSCLASGRRFSIEAMGWYRQAPGKQRELVAIIDSGGSTDYVDSAKGRFTISRDNSKNTVYLQMNSLRAEDTAVYYCNVIGSSWYGRGLDYWGQGTLVTVSS
notes: Free peptide, not conjugated to hyaluronic acid

binding result [8]: binds
B5: 2H10_5MUT_aH_CYS MVP [140.3] (VHH)
VHH: B4 VHH
modifications: C-terminal Cys is the conjugation site
notes: Multivalent protein-hyaluronic acid conjugate

Kd [9]: 0.184 nM
Kd [10]: 0.557 nM
Change in KD to t = 0 [11]: 3 fold
B6: Conjugate 8 (anti-VEGF E1-1 SEQ ID NO: 81 with aH linker SEQ ID NO: 21 on hyaluronic acid, intermediate 5-7) (VHH)
VHH: EVQLQASGGGFVQPGGSLRLSCAASGGGSDAGTMGWFRQAPGKEREFVSAISWAGTAWRYYADSVKGRFTISRDNSKNTVYLQMNSLRAEDTATYYCALGSYEMDHHYWGQGTQVTVSS
modifications: C-terminal Cys of the peptide linker bound by its thiol to the maleimide of the organic linker MP2H on hyaluronic acid (830 kDa)
notes: Multivalent peptide-hyaluronic acid conjugate (MVP); peptide valency 94; Method 5 intermediate; also called anti-VEGF E1-1 MVP (Method 5)

Kd [12]: 0.123 nM
B7: Conjugate 10 (anti-VEGF E1-1 SEQ ID NO: 81 with aH linker SEQ ID NO: 21 on hyaluronic acid, intermediate 2-4) (VHH)
VHH: B6 VHH
modifications: C-terminal Cys of the peptide linker bound by its thiol to the maleimide of the organic linker MP2H on hyaluronic acid (830 kDa)
notes: Multivalent peptide-hyaluronic acid conjugate (MVP); peptide valency 136; Method 2 intermediate; also called anti-VEGF E1-1 MVP (Method 2)

Kd [12]: 0.678 nM
B8: Conjugate 9 (anti-VEGF E1-1 SEQ ID NO: 81 with aH linker SEQ ID NO: 21 on hyaluronic acid, intermediate 5-9) (VHH)
VHH: B6 VHH
modifications: C-terminal Cys of the peptide linker bound by its thiol to the maleimide of the organic linker MP2H on hyaluronic acid (830 kDa)
notes: Multivalent peptide-hyaluronic acid conjugate (MVP); peptide valency 51; Method 5 intermediate

Kd [13]: 21.9 nM
Change in KD to t = 0 [14]: 7 fold
Kd [12]: 1.04 nM
Kd [15]: 6.75 nM
Change in KD to t = 0 [16]: 21 fold
Kd [17]: 1.04 nM
B9: Conjugate 11 (anti-VEGF E1-1 SEQ ID NO: 81 with aH linker SEQ ID NO: 21 on hyaluronic acid, intermediate 5-2) (VHH)
VHH: B6 VHH
modifications: C-terminal Cys of the peptide linker bound by its thiol to the maleimide of the organic linker MP2H on hyaluronic acid (830 kDa)
notes: Multivalent peptide-hyaluronic acid conjugate (MVP); peptide valency 47; Method 5 intermediate

binding result [8]: binds
B10: HuNb42_A88P_aH_CYS (unconjugated) (VHH)
VHH: QVQLVESGGGLVQPGGSLRLSCAASGFAYSTYSMGWFRQAPGKEREAVATINSGTFRLWYTDSVKGRFTISRDNSKNTLYLQMNSLRPEDTAVYYCAARAWSPYSSTVDAGDFRYWGQGTLVTVSS
notes: as for B4

Kd [18]: 0.00107 nM
B11: Conjugate 28 (N42 anti-VEGF VHH, HuNb42 A88P aH_CYS, SEQ ID NO: 145, on hyaluronic acid, Method B intermediate) (VHH)
VHH: B10 VHH
modifications: C-terminal Cys bound by its thiol to the maleimide of the organic linker MP2H on hyaluronic acid (830 kDa)
notes: Multivalent peptide-hyaluronic acid conjugate; valency 129
